The text below walks through data of patent EP4745153A1, “GLP-1, GIP AND GCG RECEPTOR […] USE THEREOF” (Jiangsu Hengrui Pharmaceuticals Co., Ltd., priority 2023, dated 2025).

Like-named read-outs stand apart in the source and are kept apart here. Starred links: 1 amine or outer side, 2 acyl side, 3 side chain; linkers in the order of their positions; H or OH if unused. Non-standard residues stand in square brackets, D forms with d. Groups on a side chain read outwards from the residue. No end group written: not given here. *: point of attachment. C20 diacid = O=C(O)CCCCCCCCCCCCCCCCCCC(=O)*; γGlu = O=C(O)[C@H](CCC(=O)[*:2])N[*:1]; αMeL = CC(C)C[C@](C)(N)C(=O)O; αMeK = C[C@](N)(CCCCN)C(=O)O; Iva = CC[C@](C)(N)C(=O)O; Ac4c = NC1(C(=O)O)CCC1; AEEA = NCCOCCOCC(=O)O; Aib = CC(C)(N)C(=O)O

What all share (assay): cell-based or functional assay
Test [1] has as its target T1, human glucagon receptor (human, UniProt P47871 26-477).
For test [2], the target named is T2, human glucose-dependent insulinotropic polypeptide receptor (human, UniProt P48546 22-466).
T2 sequence (looked up): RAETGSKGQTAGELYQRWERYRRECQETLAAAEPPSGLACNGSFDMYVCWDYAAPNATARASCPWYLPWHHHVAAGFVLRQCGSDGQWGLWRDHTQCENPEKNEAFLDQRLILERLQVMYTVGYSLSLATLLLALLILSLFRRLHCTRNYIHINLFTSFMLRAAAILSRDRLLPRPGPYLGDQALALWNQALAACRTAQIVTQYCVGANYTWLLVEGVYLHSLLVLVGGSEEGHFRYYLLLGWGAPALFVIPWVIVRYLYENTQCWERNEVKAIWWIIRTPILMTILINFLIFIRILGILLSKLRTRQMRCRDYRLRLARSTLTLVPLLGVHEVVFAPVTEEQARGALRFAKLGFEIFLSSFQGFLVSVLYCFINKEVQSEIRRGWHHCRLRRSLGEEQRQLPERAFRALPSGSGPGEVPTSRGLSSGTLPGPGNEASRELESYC

Test [3] has as its target T1, human glucagon receptor. The source holds these as a separate data set.
Test [4] concerns the target T2, human glucose-dependent insulinotropic …. This is another data set of the same source.
The target in test [5] is T1, human glucagon receptor. The source holds these as a separate data set.
Test [6] deals with T2, human glucose-dependent insulinotropic …. The source holds these as a separate data set.
Test [7] addresses T3, human glucagon-like peptide-1 receptor (human, UniProt P43220 24-463).
Test [8] addresses T2, human glucose-dependent insulinotropic …. This is another data set of the same source.
In test [9] the target is T3, human glucagon-like peptide-1 receptor. The source holds these as a separate data set.
Test [10] deals with T1, human glucagon receptor. This is another data set of the same source.
Test [11] deals with T2, human glucose-dependent insulinotropic …. This is another data set of the same source.
For test [12], the target named is T3, human glucagon-like peptide-1 receptor. This is another data set of the same source.
For test [13], the target named is T1, human glucagon receptor. This is another data set of the same source.

T1 sequence (P47871 26-477): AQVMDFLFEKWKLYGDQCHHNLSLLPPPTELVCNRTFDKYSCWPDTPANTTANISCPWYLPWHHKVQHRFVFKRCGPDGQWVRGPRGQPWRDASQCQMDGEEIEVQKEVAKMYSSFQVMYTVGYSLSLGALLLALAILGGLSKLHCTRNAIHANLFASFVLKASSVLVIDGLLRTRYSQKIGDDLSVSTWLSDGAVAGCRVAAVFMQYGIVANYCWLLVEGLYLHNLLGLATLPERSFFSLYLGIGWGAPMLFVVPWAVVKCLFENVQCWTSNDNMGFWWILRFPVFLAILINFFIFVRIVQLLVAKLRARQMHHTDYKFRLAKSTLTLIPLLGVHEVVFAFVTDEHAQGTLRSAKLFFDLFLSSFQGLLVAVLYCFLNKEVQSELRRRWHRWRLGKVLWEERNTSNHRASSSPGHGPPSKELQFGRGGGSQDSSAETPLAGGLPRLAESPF

B1: Compound No. 0156 (peptide)
peptide: H[Aib]QGTFTSDYSILLEK([AEEA-AEEA-γGlu-C20 diacid])KAA[Aib]EFVEWLLAGGPSSGAPPPS-NH2
As for B1, the “Activity against human GCGR (EC50 nM)” value in the test with human glucagon receptor [1] turned out to be 0.566 nM. Also, the “Activity against human GIPR (EC50 nM)” value in [2] was 0.019 nM.

B2: Compound No. 0136 (peptide)
peptide: H[Aib]HGTFTSDLSILLEK([AEEA-AEEA-γGlu-C20 diacid])KAA[Iva]EFVEWLLAGGPSSGAPPPS-NH2
Consider B2, for which the “Activity against human GCGR (EC50 nM)” value with human glucagon receptor [3] is 0.039 nM. Also, in test [4], the “Activity against human GIPR (EC50 nM)” value was 0.001 nM.

B3: Compound No. 0111 (peptide)
peptide: H[Aib]HGTFTSDYS[αMeK]YLEK([AEEA-AEEA-γGlu-C20 diacid])KAAQEFVEWLIAGGPSSGAPPPS-NH2
modifications: N-terminus assumed
SMILES: CC[C@H](C)[C@H](NC(=O)[C@H](CC(C)C)NC(=O)[C@H](Cc1c[nH]c2ccccc12)NC(=O)[C@H](CCC(=O)O)NC(=O)[C@@H](NC(=O)[C@H](Cc1ccccc1)NC(=O)[C@H](CCC(=O)O)NC(=O)[C@H](CCC(N)=O)NC(=O)[C@H](C)NC(=O)[C@H](C)NC(=O)[C@H](CCCCN)NC(=O)[C@H](CCCCNC(=O)COCCOCCNC(=O)COCCOCCNC(=O)CC[C@H](NC(=O)CCCCCCCCCCCCCCCCCCC(=O)O)C(=O)O)NC(=O)[C@H](CCC(=O)O)NC(=O)[C@H](CC(C)C)NC(=O)[C@H](Cc1ccc(O)cc1)NC(=O)[C@](C)(CCCCN)NC(=O)[C@H](CO)NC(=O)[C@H](Cc1ccc(O)cc1)NC(=O)[C@H](CC(=O)O)NC(=O)[C@H](CO)NC(=O)[C@@H](NC(=O)[C@H](Cc1ccccc1)NC(=O)[C@@H](NC(=O)CNC(=O)[C@H](Cc1c[nH]cn1)NC(=O)C(C)(C)NC(=O)[C@@H](N)Cc1c[nH]cn1)[C@@H](C)O)[C@@H](C)O)C(C)C)C(=O)N[C@@H](C)C(=O)NCC(=O)NCC(=O)N1CCC[C@H]1C(=O)N[C@@H](CO)C(=O)N[C@@H](CO)C(=O)NCC(=O)N[C@@H](C)C(=O)N1CCC[C@H]1C(=O)N1CCC[C@H]1C(=O)N1CCC[C@H]1C(=O)N[C@@H](CO)C(N)=O
Take B3: the “Activity against human GCGR (EC50 nM)” value in the test with human glucagon receptor [5] amounted to 0.552 nM. Also, the “Activity against human GIPR (EC50 nM)” value in test [6] worked out at 0.024 nM.

B4: Compound No. 0113 (peptide)
peptide: H[Aib]HGTFTSDYS[αMeK]YLEK([AEEA-AEEA-γGlu-C20 diacid])KAQQEFVEWLLAGGPSSGAPPPS-NH2
Consider B4, for which the “Activity against human GCGR (EC50 nM)” value in the test with human glucagon receptor [5] was found to be 5.91 nM. For the same molecule, the “Activity against human GIPR (EC50 nM)” value in test [6] came to 0.015 nM.

B5: Compound No. 0128 (peptide)
peptide: H[Aib]HGTFTSDYS[αMeK]LLEK([AEEA-AEEA-γGlu-C20 diacid])QAA[Iva]EFVEWLLAGGPSSGAPPPS-NH2
Take B5: the “Activity against human GLP-1R (EC50 nM)” value in test [7] amounted to 0.04 nM. Also, the “Activity against human GIPR (EC50 nM)” value in test [8] was determined as 0.0005 nM.

B6: Compound No. 0150 (peptide)
peptide: H[Aib]HGTFTSDYSILLEK([AEEA-AEEA-γGlu-C20 diacid])QAA[Ac4c]EFVEWLLA[dE]GPSSGAPPPS-NH2
modifications: N-terminus assumed
SMILES: CC[C@H](C)[C@H](NC(=O)[C@H](CO)NC(=O)[C@H](Cc1ccc(O)cc1)NC(=O)[C@H](CC(=O)O)NC(=O)[C@H](CO)NC(=O)[C@@H](NC(=O)[C@H](Cc1ccccc1)NC(=O)[C@@H](NC(=O)CNC(=O)[C@H](Cc1c[nH]cn1)NC(=O)C(C)(C)NC(=O)[C@@H](N)Cc1c[nH]cn1)[C@@H](C)O)[C@@H](C)O)C(=O)N[C@@H](CC(C)C)C(=O)N[C@@H](CC(C)C)C(=O)N[C@@H](CCC(=O)O)C(=O)N[C@@H](CCCCNC(=O)COCCOCCNC(=O)COCCOCCNC(=O)CC[C@H](NC(=O)CCCCCCCCCCCCCCCCCCC(=O)O)C(=O)O)C(=O)N[C@@H](CCC(N)=O)C(=O)N[C@@H](C)C(=O)N[C@@H](C)C(=O)NC1(C(=O)N[C@@H](CCC(=O)O)C(=O)N[C@@H](Cc2ccccc2)C(=O)N[C@H](C(=O)N[C@@H](CCC(=O)O)C(=O)N[C@@H](Cc2c[nH]c3ccccc23)C(=O)N[C@@H](CC(C)C)C(=O)N[C@@H](CC(C)C)C(=O)N[C@@H](C)C(=O)N[C@H](CCC(=O)O)C(=O)NCC(=O)N2CCC[C@H]2C(=O)N[C@@H](CO)C(=O)N[C@@H](CO)C(=O)NCC(=O)N[C@@H](C)C(=O)N2CCC[C@H]2C(=O)N2CCC[C@H]2C(=O)N2CCC[C@H]2C(=O)N[C@@H](CO)C(N)=O)C(C)C)CCC1
For B6, the “Activity against human GLP-1R (EC50 nM)” value in test [9] stood at 0.076 nM. The “Activity against human GCGR (EC50 nM)” value in the test with human glucagon receptor [10] is 0.076 nM. In addition, the “Activity against human GIPR (EC50 nM)” value in [11] was 0.002 nM.

B7: Compound No. 0107 (peptide)
peptide: H[Aib]HGTFTSDYSK[Aib]LEK([AEEA-AEEA-γGlu-C20 diacid])KAAQEFVEWLLAGGPSSGAPPPS-NH2
On to B7, for which, in [12], the “Activity against human GLP-1R (EC50 nM)” value was 0.016 nM. In the test with human glucagon receptor [13], the “Activity against human GCGR (EC50 nM)” value was 0.274 nM.

B8: Compound No. 0157 (peptide)
peptide: H[Aib]QGTFTSDYSI[αMeL]LEK([AEEA-AEEA-γGlu-C20 diacid])KAA[Aib]EFVEWLLAGGPSSGAPPPS-NH2
As to B8, the “Activity against human GCGR (EC50 nM)” value in the test with human glucagon receptor [1] was 1.33 nM. Further, in test [2], the “Activity against human GIPR (EC50 nM)” value was 0.008 nM.

B9: Compound No. 0151 (peptide)
peptide: H[Aib]HGTFTSDYSILLEK([AEEA-AEEA-γGlu-C20 diacid])KAAQEFVEWLLA[dE]GPSSGAPPPS-NH2
modifications: N-terminus assumed
SMILES: CC[C@H](C)[C@H](NC(=O)[C@H](CO)NC(=O)[C@H](Cc1ccc(O)cc1)NC(=O)[C@H](CC(=O)O)NC(=O)[C@H](CO)NC(=O)[C@@H](NC(=O)[C@H](Cc1ccccc1)NC(=O)[C@@H](NC(=O)CNC(=O)[C@H](Cc1c[nH]cn1)NC(=O)C(C)(C)NC(=O)[C@@H](N)Cc1c[nH]cn1)[C@@H](C)O)[C@@H](C)O)C(=O)N[C@@H](CC(C)C)C(=O)N[C@@H](CC(C)C)C(=O)N[C@@H](CCC(=O)O)C(=O)N[C@@H](CCCCNC(=O)COCCOCCNC(=O)COCCOCCNC(=O)CC[C@H](NC(=O)CCCCCCCCCCCCCCCCCCC(=O)O)C(=O)O)C(=O)N[C@@H](CCCCN)C(=O)N[C@@H](C)C(=O)N[C@@H](C)C(=O)N[C@@H](CCC(N)=O)C(=O)N[C@@H](CCC(=O)O)C(=O)N[C@@H](Cc1ccccc1)C(=O)N[C@H](C(=O)N[C@@H](CCC(=O)O)C(=O)N[C@@H](Cc1c[nH]c2ccccc12)C(=O)N[C@@H](CC(C)C)C(=O)N[C@@H](CC(C)C)C(=O)N[C@@H](C)C(=O)N[C@H](CCC(=O)O)C(=O)NCC(=O)N1CCC[C@H]1C(=O)N[C@@H](CO)C(=O)N[C@@H](CO)C(=O)NCC(=O)N[C@@H](C)C(=O)N1CCC[C@H]1C(=O)N1CCC[C@H]1C(=O)N1CCC[C@H]1C(=O)N[C@@H](CO)C(N)=O)C(C)C
Consider B9, for which, in [9], the “Activity against human GLP-1R (EC50 nM)” value amounted to 0.037 nM. In the test with human glucagon receptor [10], the “Activity against human GCGR (EC50 nM)” value was found to be 0.055 nM. Also, the “Activity against human GIPR (EC50 nM)” value in test [11] turned out to be 0.004 nM.
